From patent US20140298544A1, “Engineered PEP carboxylase variants for improved plant productivity” (PIONEER HI BRED INTERNATIONAL INC, priority 2011, published 2014)
Positions count from the first letter of the chain named. Where two headings read alike, the source gives them in different places.

B1: 3D10-G8: maize C4 PEPC variant, 14 amino acid substitutions, SEQ ID NO: 20 (protein)
chain: MASTKAPGPGEKHHSIDAQLCQLVPGKVSEDDKLIEYDALLVDRFLNILQDLHGPSLREFVQECYEVSADYEGKGDTTKLGELGAKLTGLAPADAILVASSILHMLNLANLAEEAQIALRRRNSKLKKGGFADEGSATTESDIEETLKRLVSEVGKSPEEVFEALKDQTVDLVFTAHPTQSARRSLLQKNARIRNCLTQLNAKDITDDDKQELDEALQREIQAAFRTDEIRRAQPTPQDEMRYGMSYIHETVWKGVPKFLRRVDTALKNIGINERLPYNVSLIRFSSWMGGDRDGNPRVTPEVTRDVCLLARMMAANLYIDQIEELMFELSMWRCNDELRVRAEELHASAGSKVTKYYIEFWKQIPPNEPYRVILGHVRDKLYNTRERARHLLASGVSEISAESSFTSIEEFLEPLELCYKSLCDCGDKAIADGSLLDLLRQVFTFGLSLVKLDIRQESERHTDVIDAITTYLGIGSYREWSEDKRQEWLLSELKGKRPLLPPDLPQTDEIADVIGAFHVLAELPPDSFGPYIISMATAPSDVLAVELLQRECGIKQPLPVVPLFERLADLQSAPASVERLFSVDWYMDRIKGKQQVMVGYSDSGKDAGRLSAAWQLYKAQEEMAQVAKRYGVKLTLFHGRGGTVGRGGGPTHLAILSQPPDTINGSIRVTVQGEVIEFCFGEEHLCFQTLQRFTAATLEHGMHPPVSPKPEWRKLMDEMAVVATEEYRSVVVKEPRFVEYFRSATPETEYGRMNIGSRPAKRRPGGGITTLRAIPWIFSWTQTRFHLPVWLGVGAAFKWAIDKDVKNFQVLKEMYNEWPFFRVTLDLLEMVFAKGDPGIAGLYDELLVAEELKPFGKQLRDKYVETQQLLLQIAGHKDILEGDPFLKRGLVLRNPYITTLNVFQAYTLKRIRDPNFKVTPQPPLSKEFADENKPAGLVKLNPASEYPPGLEDTLILTMKGIAAGMQNTG
modifications: shuffled variant
B2: 3D37-F3: maize C4 PEPC variant, 10 amino acid substitutions, SEQ ID NO: 10 (protein)
chain: MASTKAPGPGEKHHSIDAQLRQLVPGKVSEDDKLIEYDALLVDRFLNILQDLHGPSLREFVQECYEVSADYEGKGDTTKLGELGAKLTGLAPADAILVASSILHMLNLANLAEEVQIARRRRNSKLKKGGFADEGSATTESDIEETLKRLVSEVGKSPEEVFEALKNQTVDLVFTAHPTQSARRSLLQKNAGIRNCLTQLNAKDITDDDKQELDEALQREIQAAFRTDEIRRAQPTPQDEMRYGMSYIHETVWKGVPKFLRRVDTALKNIGINERLPYNVSLIRFSSWMGGDRDGNPRVTPEVTRDVCLLARMMAANLYIDQIEELMFELSMWRCNDELRVRAEELQSSAGSKVTKYYIEFWKQIPPNEPYRVILGHVRDKLYNTRERARHLLASGVSEISAESSFTSIEEFLEPLELCYKSLCDCGDKAIADGSLLDLLRQVFTFGLSLVKLDIRQESERHTDVIDAITTHLGIGSYREWSEDKRQEWLLSELKGKRPLLPPDLPQTDEIADVIGAFHVLAELPPDSFGPYIISMATAPSDVLAVELLQRECGIKQPLPVVPLFERLADLQSAPASVERLFSVDWYMDRIKGKQQVMVGYSDSGKDAGRLSAAWQLYRAQEEMAQVAKRYGVKLTLFHGRGGTVGRGGGPTHLAILSQPPDTINGSIRVTVQGEVIEFCFGEEHLCFQTLQRFTAATLEHGMHPPVSPKPEWRKLMDEMAVVATEEYRSVVVKEPRFVEYFRSATPETEYGRMNIGSRPAKRRPGGGITTLRAIPWIFSWTQTRFHLPVWLGVGAAFKWAIDKDVKNFQVLKEMYNEWPFFRVTLDLLEMVFAKGDPGIAGLYDELLVAEELKPFGKQLRDKYVETQQLLLQIAGHKDILEGDPYLKQGLVLRNPYITTLNVFQAYTLKRIRDPNFKVTPQPPLSKEFADENKPAGLVKLNPASEYPPGLEDTLILTMKGIAAGMQNTG
modifications: shuffled variant
B3: 3D5-D12: maize C4 PEPC variant, 7 amino acid substitutions, SEQ ID NO: 24 (protein)
chain: B2 chain with K86R, V115A, R119H, Q347H, S348A, I555V, K556R, W800F, Y886F
modifications: shuffled variant
B4: WT: wild-type maize C4 PEPC enzyme, SEQ ID NO: 26 (protein)
chain: B2 chain with R119H, G192R, Q347H, A350S, K495R, I555V, K556R, W800F, K807R, Y886F
modifications: Zea mays

How the values were obtained:
maize C4 PEPC [1] = test: Kinetic and regulatory properties of PEPC variants (expressed in E. coli); type: biochemical; settings: for HCO3 S0.5 / HCO3 kcat/S0.5 / HCO3 kcat/S0.5 % wt: bicarbonate substrate; for Ki / Malate Ki % wt: inhibitor malate
Description: (§1) Libraries of modified PEPC polynucleotides were generated using recursive sequence recombination methods (Stemmer, Proc. Natl. Acad. Sci USA 91:10747-10751; Ness, et. al., Nature Biotechnology 20:1251-1255), also known as gene shuffling methods. These libraries incorporated diversity from related PEPC enzymes and also incorporated other designed and random changes. The starting polynucleotide sequence in which the diversity was incorporated was the maize C4 PEPC as shown in SEQ ID NO: 25. Each PEPC variant was expressed in E. coli as a thioredoxin fusion using the pET 32 expression vector (Novagen) with the E. coli expression strain Rosetta gami 2 BL21 DE3 pLYS S. Cultures expressing the variants were grown in 96-well culture blocks, lysed, and then PEPC activity and PEPC protein abundance were determined. The variants with high specific activity were subjected to further rounds of shuffling, for a total of 3 rounds. Examples of nucleotide and amino acid sequences of PEPC variants obtained with this method are SEQ ID NO: 4 to 24.
(§2) Detailed kinetic studies of PEPC variants were done in accordance with methods known in the art. See, for example, Tovar-Mendez et al. (2000) Plant Physiol. 123: 149-160; Tover-Mendez et al. (1998) Biochem. J. 332: 633-642.
(§3) PEPC variants had several improved properties in comparison with wild type PEPC, including greater affinity (lower S0.5 values) with respect to the bicarbonate substrate, greater Kcat/S0.5 values with the bicarbonate or PEP substrates, greater activation (lower A0.5 values) with […] or glycine as activators and greater Ki values with malate as inhibitor.

maize C4 PEPC [2] = molecular target: T1, maize C4 PEPC (Zea mays, UniProt P04711, A239D/A736P/F800W/F886Y/H119R/H347Q/P482S/R192G/R495K/R556K/R807K/S350A/V555I); test: as above; type: biochemical; settings: relative to wild type
T1 construct: thioredoxin; made in house; host or cells: E. coli Rosetta gami 2 BL21 DE3 pLYS S
Description: as §1, §2, §3

[3] = PEP substrate, relative to wild type
[4] = PEP substrate, with activators vs no activators
[5] = activator Glc-6-P, read-out: Glc-6-P A0.5
[6] = activator Glc-6-P, relative to wild type
[7] = activator glycine, read-out: Glycine A0.5
[8] = activator glycine, relative to wild type

Molecule	PEP, no activators kcat/S0.5 (maize C4 PEPC [1]; PEP substrate)	PEP, no activators kcat/S0.5 % wt (maize C4 PEPC [1]; [3])	PEP, with activators kcat/S0.5 (maize C4 PEPC [1]; PEP substrate)	kcat/S0.5 Fold incr. (maize C4 PEPC [1]; [4])	PEP, with activators kcat/S0.5 % wt (maize C4 PEPC [1]; [3])	Glc-6-P Vmax Fold incr (maize C4 PEPC [1]; activator Glc-6-P)	EC50 (maize C4 PEPC [1]; [5])	Glc-6-P A0.5 % wt (maize C4 PEPC [1]; [6])	Glycine Vmax Fold incr (maize C4 PEPC [1]; activator glycine)	EC50 (maize C4 PEPC [1]; [7])	Glycine A0.5 % wt (maize C4 PEPC [1]; [8])	HCO3 S0.5 (maize C4 PEPC [1])	HCO3 kcat/S0.5 (maize C4 PEPC [1])	HCO3 kcat/S0.5 % wt (maize C4 PEPC [1]; relative to wild type)	Ki (maize C4 PEPC [1])	Malate Ki % wt (maize C4 PEPC [1]; relative to wild type)	also measured
B1	86200 M⁻¹ s⁻¹	253 % wt	4.613e+06 M⁻¹ s⁻¹	53.5 Fold incr.	189 % wt	2.5 Fold incr	920 µM	14 % wt	3.6 Fold incr	230 µM	6 % wt	0.0255 mM	3.2e+06 M⁻¹ s⁻¹	151 % wt	5000 µM	1250 % wt	
B2	71500 M⁻¹ s⁻¹	210 % wt	5.01e+06 M⁻¹ s⁻¹		205 % wt	7.2 Fold incr	4460 µM	66 % wt	5.8 Fold incr	930 µM	26 % wt	0.0167 mM	3.512e+06 M⁻¹ s⁻¹	166 % wt	2400 µM	600 % wt	affinity (S0.5 value) for bicarbonate, in words (maize C4 PEPC [2]): higher affinity; kcat/S0.5 Fold incr. (maize C4 PEPC [1]): 70.1 Fold incr.; Ki for malate, in words (maize C4 PEPC [1]; relative to wild type): increased Ki; activation by glucose-6-phosphate, in words (maize C4 PEPC [1]; relative to wild type): increased activation; activation by glycine, in words (maize C4 PEPC [1]; relative to wild type): increased activation
B3	151000 M⁻¹ s⁻¹	442 % wt	5.551e+06 M⁻¹ s⁻¹	36.9 Fold incr.	227 % wt	4.3 Fold incr	1880 µM	28 % wt	4.1 Fold incr	320 µM	9 % wt	0.0277 mM	3.454e+06 M⁻¹ s⁻¹	163 % wt	4000 µM	1000 % wt	
B4	34100 M⁻¹ s⁻¹	100 % wt	2.443e+06 M⁻¹ s⁻¹	71.6 Fold incr.	100 % wt	23.1 Fold incr	6800 µM	100 % wt	15.9 Fold incr	3620 µM	100 % wt	0.0282 mM	2.122e+06 M⁻¹ s⁻¹	100 % wt	400 µM	100 % wt	
